# The supplement of paper PMC6757056
# ± gives the standard deviation of the averaged measurements.
# B1: library; a variant is named by its letters at N, in order (parent)
# chain: GCUGUCACCGAGAAACUGUGAAGUAUAUCUUAAACCUGGGCACUUAAAAGAUAUAUGGAGUUAGUAGUGCAACCUGCUCGGUCUGAUGAGUCCNNNNNNGGACGAAACAGC
# Assays:
# [1] = variants of: B1; assay: normalized RNA/DNA level without ligand (relative to sTRSVctl = 100) (log10 (% of sTRSVctl)); HEK293T; ligand: cyclic di-GMP (c-di-GMP-II aptamer); higher = less ribozyme self-cleavage, higher mRNA level; conditions: reporter: mCherry (pCS4076), ligand present: no
# How it was run: (§1)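 RNA level was computed as RNA reads over DNA reads divided by a spiked-in non-cleaving sequence or by the top sequences, then scaled and log-transformed. Scaling was ×100 with log10, the top group was 25 sequences, and the threshold was ≥100 DNA reads. The reads came from HEK293T cells transfected at 4 µg per 6-well well with ribozyme switch library plasmids (mCherry, or eGFP in some ligand experiments). Total RNA was extracted with EDTA 72 h after transfection, with any ligand added 1 h before it.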
# [2] = variants of: B1; assay: normalized RNA/DNA level with ligand (relative to sTRSVctl = 100) (log10 (% of sTRSVctl)); HEK293T; ligand: cyclic di-GMP (c-di-GMP-II aptamer); ligand concentration (+) RNA-Seq: 1 mM; higher = less ribozyme self-cleavage, higher mRNA level; conditions: reporter: mCherry (pCS4076), ligand present: yes
# How it was run: as §1
Variant,normalized RNA/DNA level without ligand (log10) [1],normalized RNA/DNA level with ligand (log10) [2]
GGUGGC,1.68 ± 0.03,1.83 ± 0.076
GGUGGA,1.55 ± 0.11,1.7 ± 0.065
AGGUCG,1.738 ± 0.013,1.82 ± 0.11
AGGUCC,1.86 ± 0.022,1.94 ± 0.08
AGGUCU,1.73 ± 0.045,1.85 ± 0.14
CGGGUU,1.748 ± 0.012,1.82 ± 0.13
AGGCGG,1.79 ± 0.026,1.88 ± 0.063
AGGCGU,1.609 ± 0.0044,1.76 ± 0.12
AGGCGC,1.74 ± 0.075,1.86 ± 0.088
AGGCGA,1.56 ± 0.037,1.67 ± 0.13
GGGUCA,1.828 ± 0.013,1.91 ± 0.16
GGGUCC,1.91 ± 0.098,1.95 ± 0.14
GGUGAA,1.34 ± 0.076,1.61 ± 0.07
GGUGAC,1.75 ± 0.0083,1.86 ± 0.14
GGUGAU,1.67 ± 0.041,1.76 ± 0.057
UGUGCC,1.85 ± 0.074,1.94 ± 0.14
UGUGCG,1.804 ± 0.0083,1.93 ± 0.059
UGUGCA,1.77 ± 0.02,1.87 ± 0.073
UGUGCU,1.71 ± 0.071,1.87 ± 0.089
AGUGCU,1.67 ± 0.043,1.82 ± 0.096
AGUGCG,1.7 ± 0.058,1.85 ± 0.095
GGGGCA,1.752 ± 0.011,1.88 ± 0.081
GGGGCC,1.85 ± 0.069,1.94 ± 0.13

Variant,normalized RNA/DNA level without ligand (log10) [1],normalized RNA/DNA level with ligand (log10) [2]
AGGGUG,1.64 ± 0.046,1.7 ± 0.12
AGGGUA,1.53 ± 0.035,1.6 ± 0.12
AGGGUU,1.6902 ± 0.0014,1.77 ± 0.056
AGGGUC,1.71 ± 0.07,1.85 ± 0.18
CGGUAG,1.731 ± 0.0046,1.84 ± 0.038
UGGCUA,1.719 ± 0.003,1.87 ± 0.11
UGGCUG,1.836 ± 0.013,1.9 ± 0.095
UGGCUU,1.694 ± 0.014,1.88 ± 0.058
UGGCUC,1.78 ± 0.047,1.92 ± 0.077
AGGUUA,1.54 ± 0.037,1.64 ± 0.18
AGGUUU,1.7 ± 0.04,1.85 ± 0.11
AGGUUG,1.7 ± 0.022,1.77 ± 0.1
AGGUUC,1.75 ± 0.026,1.86 ± 0.14
GGGUUC,1.79 ± 0.072,1.89 ± 0.12
GGUAGA,1.34 ± 0.04,1.55 ± 0.1
GGUAGC,1.671 ± 0.014,1.8 ± 0.12
GGUCUA,1.52 ± 0.046,1.72 ± 0.039
GGUCUU,1.64 ± 0.039,1.79 ± 0.13
GGUCUC,1.73 ± 0.075,1.87 ± 0.12
AGUAGC,1.618 ± 0.0046,1.8 ± 0.12
UGUAGC,1.73 ± 0.043,1.83 ± 0.15
UGUAGG,1.72 ± 0.035,1.85 ± 0.072
UGUAGA,1.67 ± 0.045,1.82 ± 0.12

Variant,normalized RNA/DNA level without ligand (log10) [1],normalized RNA/DNA level with ligand (log10) [2]
UGGUCU,1.75 ± 0.048,1.91 ± 0.11
UGGUCC,1.86 ± 0.085,1.98 ± 0.085
UGGUCA,1.78 ± 0.061,1.89 ± 0.067
GGUCCA,1.777 ± 0.015,1.95 ± 0.022
GGUCCC,1.83 ± 0.045,1.92 ± 0.11
GGUCCG,1.9 ± 0.057,1.96 ± 0.13
CGUGAG,1.7 ± 0.026,1.83 ± 0.05
UGGUAG,1.66 ± 0.035,1.82 ± 0.13
UGGUAC,1.684 ± 0.015,1.83 ± 0.092
UGGUAA,1.56 ± 0.095,1.79 ± 0.096
UGGUAU,1.661 ± 0.013,1.82 ± 0.13
GGUAAA,1.441 ± 0.0091,1.62 ± 0.13
GGUAAC,1.743 ± 0.0073,1.85 ± 0.077
GGUAAG,1.49 ± 0.12,1.65 ± 0.098
GGUAAU,1.61 ± 0.039,1.72 ± 0.037
UGUACG,1.792 ± 0.0062,1.87 ± 0.032
UGUACA,1.778 ± 0.0071,1.88 ± 0.095
AGUAUC,1.68 ± 0.022,1.81 ± 0.13
AGUAUU,1.68 ± 0.037,1.83 ± 0.1
AGUAUG,1.54 ± 0.085,1.75 ± 0.087
AGUAUA,1.47 ± 0.015,1.69 ± 0.11
UGUCUU,1.73 ± 0.0071,1.88 ± 0.1
UGUCUA,1.71 ± 0.037,1.84 ± 0.15

Variant,normalized RNA/DNA level without ligand (log10) [1],normalized RNA/DNA level with ligand (log10) [2]
UGUCUC,1.79 ± 0.0075,1.88 ± 0.087
UGUCUG,1.736 ± 0.0044,1.88 ± 0.08
GGUGCC,1.82 ± 0.077,1.95 ± 0.15
GGUGCA,1.78 ± 0.12,1.91 ± 0.13
UGGCGU,1.6 ± 0.03,1.81 ± 0.16
UGGCGC,1.818 ± 0.018,1.9 ± 0.14
UGGCGA,1.597 ± 0.0046,1.74 ± 0.11
UGGCGG,1.854 ± 0.013,1.93 ± 0.13
UGUAAC,1.718 ± 0.0028,1.84 ± 0.12
UGUAAU,1.679 ± 0.01,1.84 ± 0.14
UGUAAG,1.73 ± 0.022,1.84 ± 0.089
UGUCAG,1.67 ± 0.042,1.82 ± 0.1
UGUCAC,1.75 ± 0.04,1.87 ± 0.15
UGUCAU,1.68 ± 0.049,1.81 ± 0.1
UGUCAA,1.69 ± 0.048,1.82 ± 0.096
CGUCCC,1.75 ± 0.029,1.9 ± 0.086
CGUCCA,1.53 ± 0.11,1.72 ± 0.1
CGUCCG,1.82 ± 0.035,1.89 ± 0.069
UGGGGG,1.79 ± 0.055,1.87 ± 0.09
UGGGGA,1.58 ± 0.085,1.73 ± 0.073
UGGGGC,1.767 ± 0.012,1.91 ± 0.1
UGGGGU,1.63 ± 0.056,1.77 ± 0.11
AGUGAU,1.671 ± 0.003,1.81 ± 0.12

Variant,normalized RNA/DNA level without ligand (log10) [1],normalized RNA/DNA level with ligand (log10) [2]
AGUGAG,1.52 ± 0.11,1.67 ± 0.13
UGGUGG,1.68 ± 0.017,1.81 ± 0.12
UGGUGC,1.72 ± 0.053,1.86 ± 0.099
UGGUGU,1.6 ± 0.11,1.81 ± 0.063
UGUGAG,1.7 ± 0.038,1.87 ± 0.07
UGUGAA,1.658 ± 0.012,1.85 ± 0.078
GGUAUG,1.59 ± 0.093,1.74 ± 0.04
GGUAUA,1.5 ± 0.066,1.72 ± 0.025
GGUAUU,1.61 ± 0.056,1.8 ± 0.11
GGGUAC,1.73 ± 0.012,1.8 ± 0.045
GGGUAG,1.85 ± 0.057,1.89 ± 0.059
GGGUAA,1.61 ± 0.091,1.7 ± 0.12
GGGUAU,1.75 ± 0.041,1.9 ± 0.23
AGGGCU,1.69 ± 0.034,1.85 ± 0.088
AGGGCG,1.78 ± 0.0082,1.84 ± 0.11
AGGGCA,1.756 ± 0.017,1.81 ± 0.048
AGGGCC,1.84 ± 0.052,1.93 ± 0.068
AGUCGA,1.71 ± 0.036,1.84 ± 0.081
AGUCGU,1.6615 ± 0.0012,1.79 ± 0.08
AGUCGC,1.731 ± 0.0037,1.85 ± 0.12
AGUCGG,1.8 ± 0.051,1.87 ± 0.082
AGUCAC,1.67 ± 0.062,1.81 ± 0.049
AGUCAU,1.69 ± 0.071,1.85 ± 0.13
